From publication PMC6994465, “Structural basis of proton-coupled potassium transport in the KUP family” (Nature Communications, 2020)

Target: the molecule itself
Experiment: cryo-EM structure; KimA in SMA lipid particles (SMALPs) at 1.1 mg/mL, 50 mM Tris pH 8, 100 mM KCl, with 50 uM cyclic di-AMP; C2 symmetry; 3.7 A

B1: KimA from Bacillus subtilis (natural protein)
chain: MYHSIKRFLIGKPLKSQAAGEQKLTKLKALAMLSSDALSSVAYGTEQILIILATISAAAFWYSIPIAVGVLILLLALILSYRQIIYAYPQGGGAYIVSKENLGEKPGLIAGGSLLVDYILTVAVSISAGTDAITSAFPALHDYHVPIAIFLVLVIMILNLRGLSESASILAYPVYLFVVALLVLIAVGLFKLMTGQIDQPAHHTSLGTPVAGITLFLLLKAFSSGCSALTGVEAISNAIPAFKNPPARNAARTLAMMGILLAILFSGITVLAYGYGTAPKPDETVVSQIASETFGRNVFYYVIQGVTSLILVLAANTGFSAFPQLAFNLARDQYMPRMFTVRGDRLGFSNGIIFLGFASIVLIILFGGQTEHLIPLYAVGVFIPFTLSQTGMCMKWIKQKPKGWIGKMLINSCGALISFMVLSILFVTKFNVVWPVLIFMPIVVLLFFAIKNHYTAVGEQLRIVDKEPEEIKGTVVIVPVAGVTTVVQKSIHYAKSLSDQVIAVHVSFDREQEKKFEKRWEELNNGVRLVTLHSSYRSLVHPFDKFLETVEAKAKKEQFSVMVLFPQFITKKRWHTILHNQSAFLLRVRLFWKKDIMVATLPYHFKK
notes: KimA, potassium importer of the KUP family, Bacillus subtilis; gene amplified from genomic DNA; Homodimer in the cryo-EM structure; The model holds 572 of 607 residues (it lacks the first 26 residues and residues 480-481, 534-538 and 607); Primers are in the Supplementary Methods; also called wild-type KimA; potassium importer KimA; source: E. coli LB2003, purified (membranes solubilised with SMA …)
  stoichiometry N: 2
